Earlier results on one substance are cited in PMC8174103.

The series concerns the target EGFR (Homo sapiens) (UniProt P00533).

As a reminder, the Kd is the equilibrium constant for the complex coming apart. Consider EGF (from UniProt P01133), for which the Kd was 2 nM.
